From patent US7658916B2, “Methods of enhancing lysosomal storage disease therapy by modulation of cell surface receptor density” (Genzyme Corporation, priority 2002, dated 2010)
Where two headings read alike, the source gives them in different places.

Columns and labels:
[1] = system: asialoglycoprotein receptors (ASGPR); conditions: cited from earlier work
[2] = system: L6 myotubes; assay: Alpha-galactosidase uptake by L6 myotubes in vitro; type: cell-based, rat; conditions: 5 mM M6P; to the endogenous level
Experimental: Muscles are the major target tissues for enzyme replacement therapy of Pompe disease due to the lack of acid alpha-glucosidase. To determine if the M6P/IGF-II receptor-mediated lysosomal enzyme uptake pathway can be augmented by insulin/glucose, the effects of insulin/glucose were analyzed on induced muscle cells (myotubes) in vitro. L6 myoblasts (or induced myotubes) and Hep3B cells were cultured in 6-well dishes. Rat L6 myoblasts (ATCC# CRL-1458) were cultured at 37° C. under 5% CO2 in VitaCell DMEM media (ATCC# 30-2002) with 4 mM L-glutamine, 10% fetal bovine serum (Gibco #16000-044) and 1× penicillin/streptomycin. Once confluent, cells were switched to VitaCell DMEM plus 2% horse sera (Gibco# 26050-088) and 1× penicillin/streptomycin. Media were changed every 3 days and at day 9-10, myotubes could be observed as multinuclear tubes. About 30-40% of the myoblasts formed myotubes. Cells were used for uptake assay at day 10. Hep3B cells were grown in MEM-eagle (Gibco# 11960-044) with 10% FBS, 1×NEAA, 1× sodium pyruvate and 1× penicillin/streptomycin.
Before the uptake assay, the cells were washed once with PBS and once with DMEM minus glucose media (Gibco#11966-025), then the cells were starved in 1.5 ml of DMEM minus glucose media for 1 hour at 37° C. […]

[3] = system: mannose receptor; conditions: cited from earlier work
[4] = system: muscle tissues; set-up: species or system normal mice (129 SV); conditions: mouse, in vivo, 6 mg/kg
Experimental: (§1) To directly evaluate the effects of insulin/glucose on alpha-galactosidase uptake in vivo, normal (129 SV, 3-4 month, male) and Fabry mice (on 129SV background, 3-4 month, male) were used for uptake assays under different conditions.
(§2) Normal mice were fasted overnight from 5 p.m. to 9 a.m. next morning, and then divided into three groups. […] The second group directly received alpha-galactosidase injection (6 mg/kg) through tail vein as bolus injection; the third group was first gavaged with 0.5 ml of 50% glucose followed by subcutaneous injection of insulin (0.25 U) on the upper back 10 minutes later, after another 45 minutes, alpha-galactosidase was injected as for the second group. Two hours after alpha-galactosidase injection, different tissues (heart, diaphragm, tongue, muscle gastrocnemius, muscle vastus laterus, muscle paraspinal) were collected and assayed for alpha-galactosidase activity after homogenization in alpha-galactosidase assay buffer plus 1% of triton and 1× protease inhibitor cocktail.

[5] = system: muscle tissues; conditions: mouse, in vivo
Experimental: as §1, §2
Here, 4 groups of Fabry mice were used and similarly treated as for the normal mice. […]

[6] = system: rat alveolar macrophage cell line NR 8383; assay: CEREZYME enzyme uptake by rat alveolar macrophage cells in vitro; type: cell-based; conditions: result in words
Experimental: The rat alveolar macrophage cell line NR 8383 (ATCC# CRL-2192) were cultured in Kaighn's modified F12K nutrient mixture (Gibco# 21127-002) with 2 mM L-glutamine (Gibco# 25030-081), 15% heat-inactivated fetal bovine serum (FBS) (Gibco# 16000-044) and 1× penicillin/streptomycin. Most of the cells were attached to the dish, with some in suspension. Hep3B cells were grown in MEM-eagle (Gibco# 11960-044) with Earles salts and 10% FBS, 1× non-essential amino acid (NEAA), 1× sodium pyruvate and 1× penicillin/streptomycin. Human liver sinusoidal endothelial cells (LSECS) (ACBRI#-566) were purchased from Applied Cell Biology Research Institute through Cell Systems, Inc. Cells were cultured in CS-C Media (CSC# 4Z0-500) with additional 10% FBS. During passage, the culture dishes or flasks were treated with attachment factor solution (CSC# 4Z0-210). Prior to seeding, the purity of the LSECs was confirmed by immunostaining with anti-VOA Willebrand factor (data not shown).
For dexamethasone or other drug treatment, the cells were incubated with the drugs under various conditions as indicated in each figure legend (FIGS. 1A-F). […]
The lysates were used for glucocerebrosidase assay in duplicate or triplicate with 4-MU-beta-glucoside (Sigma# M-3633) as substrate and with CEREZYME® enzyme as standard. Proteins were quantified using a MicroBCA protein assay kit (Pierce) with BSA as standard. […]

In the case of Interferon alpha, the “inhibition of binding and uptake of asialoglycoproteins” value (“inhibition … of asialoglycoproteins” below) ([1]; after 3-6 hour treatment) is listed as 50% and the “inhibition … of asialoglycoproteins” value ([1]; after 24 hour treatment) is listed as about 100%.

For `O=P(O)(O)OC[C@H]1OC(O)[C@@H](O)[C@@H](O)[C@@H]1O` (some centres unmarked) [M6P], the “inhibition of alpha-galactosidase uptake by myotubes” value [2] was “entire alpha-galactosidase uptake can be inhibited”.

For prostaglandin E, the “enhancement of mannose receptor cell surface expression on macrophages” value [3] is listed as 4-6 fold.

With “alpha-galactosidase: recombinant human alpha-galactosidase, used as a model M6P-bearing lysosomal enzyme” the “alpha-galactosidase activity in muscle tissues after injection alone” value [4] was “increased its activity in all the muscle tissues”, the “alpha-galactosidase activity in tissues relative to wildtype tissues” value [5] was “about similar levels” and the “increase in alpha-galactosidase activity in heart over wildtype tissue” value [5] was “more than 10 fold”.

B1: mouse interferon-gamma: mouse interferon-γ, species-specific down-regulator of mannose receptor expression on macrophage cells (protein, UniProt P01580 23-155, looked up)
Interferon gamma: HGTVIESLESLNNYFNSSGIDVEEKSLFLDIWRNWQKDGDMKILQSQIISFYLRLFEVLKDNQAISNNISVIESHLITTFFSNSKAKKDAFMSIAKFEVNNPQVQRQAFNELIRVVHQLLPESSLRKRKRSRC
For B1, the “effect on CEREZYME enzyme uptake by macrophage cells” value [6] was “did not enhance or inhibit”.

B2: interferon-gamma: cytokine that down-regulates mannose receptors and asialoglycoprotein receptors (protein, UniProt P01579 24-161, looked up)
Interferon gamma: QDPYVKEAENLKKYFNAGHSDVADNGTLFLGILKNWKEESDRKIMQSQIVSFYFKLFKNFKDDQSIQKSVETIKEDMNVKFFNSNKKKRDDFEKLTNYSVTDLNVQRKAIHELIQVMAELSPAAKTGKRKRSQMLFRG
For B2, the “inhibition … of asialoglycoproteins” value ([1]; after 3-6 hour treatment) is given as 50% and the “inhibition … of asialoglycoproteins” value ([1]; after 24 hour treatment) is given as about 100%.

B3: interleukin-4: cytokine shown to enhance mannose receptor cell surface expression on macrophages (protein, UniProt P05112 25-153, looked up)
Interleukin-4: HKCDITLQEIIKTLNSLTEQKTLCTELTVTDIFAASKNTTEKETFCRAATVLRQFYSHHEKDTRCLGATAQQFHRHKQLIRFLKRLDRNLWGLAGLNSCPVKEANQSTLENFLERLKTIMREKYSKCSS
For B3, the “enhancement of mannose receptor cell surface expression on macrophages” value [3] is listed as 10-15 fold.
